The target of data set [1] is T1, putative esterase / UPF0227 protein ExploCarb_3811S_S4_483_length_13114_cov_941_5 (Sulfurihydrogenibium sp., UniProt A0A2J6WYH8).
T1 construct: gene C0178_06060
T1 sequence (A0A2J6WYH8 1-191): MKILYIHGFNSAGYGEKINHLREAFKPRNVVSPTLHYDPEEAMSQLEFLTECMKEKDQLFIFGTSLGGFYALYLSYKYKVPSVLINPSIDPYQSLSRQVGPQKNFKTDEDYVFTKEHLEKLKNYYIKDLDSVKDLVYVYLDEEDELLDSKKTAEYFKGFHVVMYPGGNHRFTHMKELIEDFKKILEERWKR

Substrate in data set [2]: CC(=O)Oc1ccc([N+](=O)[O-])cc1
In words: pNP-ester hydrolysis kinetics. The following applies: pH 8.0, 70 °C, substrate up to 0.7 mM. It counts as biochemical, Sulfurihydrogenibium sp.

Substrate in data set [3]: CCCC(=O)Oc1ccc([N+](=O)[O-])cc1
In words: pNP-ester hydrolysis kinetics. The following applies: pH 8.0, 70 °C, substrate up to 0.7 mM. It counts as biochemical, Sulfurihydrogenibium sp.

Substrate in data set [4]: CCCCCCCC(=O)Oc1ccc([N+](=O)[O-])cc1
In words: pNP-ester hydrolysis kinetics. It counts as biochemical, Sulfurihydrogenibium sp. Conditions: pH 8.0, 70 °C, substrate up to 0.7 mM.

Here are results for two molecules from paper PMC11145796, “Environmental activity-based protein profiling for function-driven enzyme discovery from natural communities” (Environmental Microbiome, 2024).

On to `CCOP(=O)(OCC)Oc1ccc([N+](=O)[O-])cc1` [paraoxon], for which the “competition with FP-alkyne labelling of purified esterase (pre-incubation)” value in data set [1] is listed as “could be strongly diminished by pre-incubation with the generic serine esterase inhibitor paraoxon”.

B1: putative esterase / UPF0227 protein ExploCarb_3811S_S4_483_length_13114_cov_941_5 (Sulfurihydrogenibium sp.) (protein)
chain: MKILYIHGFNSAGYGEKINHLREAFKPRNVVSPTLHYDPEEAMSQLEFLTECMKEKDQLFIFGTSLGGFYALYLSYKYKVPSVLINPSIDPYQSLSRQVGPQKNFKTDEDYVFTKEHLEKLKNYYIKDLDSVKDLVYVYLDEEDELLDSKKTAEYFKGFHVVMYPGGNHRFTHMKELIEDFKKILEERWKR
notes: 191 amino acids; codon-optimized gene in pET-28b(+), expressed in E. coli Rosetta(DE3), purified; motif G63-T64-S65-L66-G67
B1: the values for the Km in data set [2], in data set [3] and in data set [4] were 120 µM, 180 µM and 160 µM, respectively.

By Km is commonly meant the substrate concentration at which the rate is half of its maximum.
